Laboratory results as given in article PMC5808845.

Tests used:
GST-TRF2 = GST-TRF2 (human, UniProt Q15554 43-542); assay: EMSA
GST-TRF1 = GST-TRF1 (human, UniProt P54274 1-439); assay: EMSA
Sequence of GST-TRF1 (P54274 whole entry): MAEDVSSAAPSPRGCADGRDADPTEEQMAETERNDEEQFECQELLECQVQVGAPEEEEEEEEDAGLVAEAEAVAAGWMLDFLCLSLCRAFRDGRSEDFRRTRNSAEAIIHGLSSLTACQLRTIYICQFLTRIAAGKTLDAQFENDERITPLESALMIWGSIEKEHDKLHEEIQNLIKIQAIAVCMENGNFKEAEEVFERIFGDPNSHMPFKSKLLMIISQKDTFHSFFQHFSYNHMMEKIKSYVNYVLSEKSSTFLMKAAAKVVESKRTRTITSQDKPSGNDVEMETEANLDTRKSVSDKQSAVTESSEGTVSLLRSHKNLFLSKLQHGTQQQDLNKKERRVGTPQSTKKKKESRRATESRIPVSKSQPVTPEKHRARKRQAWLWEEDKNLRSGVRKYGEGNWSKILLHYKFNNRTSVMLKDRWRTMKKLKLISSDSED

Sequence of GST-TRF2 (Q15554 43-542): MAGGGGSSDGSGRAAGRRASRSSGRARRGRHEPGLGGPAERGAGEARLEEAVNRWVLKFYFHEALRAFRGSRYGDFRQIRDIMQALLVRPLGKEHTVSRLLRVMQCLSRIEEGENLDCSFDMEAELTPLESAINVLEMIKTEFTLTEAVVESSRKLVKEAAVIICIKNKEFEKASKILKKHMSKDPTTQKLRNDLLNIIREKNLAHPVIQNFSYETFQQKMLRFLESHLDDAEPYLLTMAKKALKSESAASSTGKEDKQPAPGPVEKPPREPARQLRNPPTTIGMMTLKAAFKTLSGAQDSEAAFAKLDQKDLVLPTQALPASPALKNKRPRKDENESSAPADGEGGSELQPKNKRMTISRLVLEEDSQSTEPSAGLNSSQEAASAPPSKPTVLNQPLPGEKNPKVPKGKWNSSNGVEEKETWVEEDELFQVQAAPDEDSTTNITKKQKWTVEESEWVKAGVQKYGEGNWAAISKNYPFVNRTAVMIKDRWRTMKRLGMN

| Binder | binding result (GST-TRF2) | binding result (GST-TRF1) |
| --- | --- | --- |
| CCCUAACCCUAACCCUAACCCUAACCCUAA (ssRNA) [(CCCUAA)5 RNA] | no binding | no binding |
| TTAGGGTTAGGGTTAGGGTTAGGGTTAGGG (ssDNA) [(TTAGGG)5 DNA] | no binding | no binding |
| AGAGAUUGCCUGACGUCAGAGAGCUAGCGA (ssRNA) [random RNA] | no binding | no binding |
| TATCGATAAGCTTGATATCGAATTCCTGCA (ssDNA) [random DNA] | no binding | no binding |
